Our source for the Kd, koff and kon values is PMC13105642.

This test deals with Antibody_82-M1. As to the kind of experiment: SPR; Biacore 8K; antibody captured on a Protein G chip; gradient concentrations of LONP1 as analyte; 1x HBS-EP buffer; fitted to a 1:1 binding model. In general terms: Surface plasmon resonance follows binding to a sensor surface in real time, without labels.

In general, Kd refers to the constant that tells how readily two partners part at equilibrium. A higher Kd goes with a looser complex. Broadly, the koff is the rate constant with which the complex falls apart. A lower koff goes with slow dissociation. As a reminder, the kon is a measure of how fast the partners come together.

Sequence of Antibody_82-M1 (heavy, as listed by the source, chain 1 of 2): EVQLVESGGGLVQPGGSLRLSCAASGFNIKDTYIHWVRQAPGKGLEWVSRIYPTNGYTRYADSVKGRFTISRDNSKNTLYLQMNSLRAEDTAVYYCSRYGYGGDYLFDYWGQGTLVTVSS
Sequence of Antibody_82-M1 (light, as listed by the source, chain 2 of 2): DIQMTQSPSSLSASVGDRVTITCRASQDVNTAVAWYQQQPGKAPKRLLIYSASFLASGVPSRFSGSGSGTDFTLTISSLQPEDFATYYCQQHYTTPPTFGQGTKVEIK

B1: Lon Peptidase 1 (LONP1) (enzyme)
chain: FWEASSRGGGAFSGGEDASEGGAEEGAGGAGGSAGAGEGPVITALTPMTIPDVFPHLPLIAITRNPVFPRFIKIIEVKNKKLVELLRRKVRLAQPYVGVFLKRDDSNESDVVESLDEIYHTGTFAQIHEMQDLGDKLRMIVMGHRRVHISRQLEVEPEEPEAENKHKPRRKSKRGKKEAEDELSARHPAELAMEPTPELPAEVLMVEVENVVHEDFQVTEEVKALTAEIVKTIRDIIALNPLYRESVLQMMQAGQRVVDNPIYLSDMGAALTGAESHELQDVLEETNIPKRLYKALSLLKKEFELSKLQQRLGREVEEKIKQTHRKYLLQEQLKIIKKELGLEKDDKDAIEEKFRERLKELVVPKHVMDVVDEELSKLGLLDNHSSEFNVTRNYLDWLTSIPWGKYSNENLDLARAQAVLEEDHYGMEDVKKRILEFIAVSQLRGSTQGKILCFYGPPGVGKTSIARSIARALNREYFRFSVGGMTDVAEIKGHRRTYVGAMPGKIIQCLKKTKTENPLILIDEVDKIGRGYQGDPSSALLELLDPEQNANFLDHYLDVPVDLSKVLFICTANVTDTIPEPLRDRMEMINVSGYVAQEKLAIAERYLVPQARALCGLDESKAKLSSDVLTLLIKQYCRESGVRNLQKQVEKVLRKSAYKIVSGEAESVEVTPENLQDFVGKPVFTVERMYDVTPPGVVMGLAWTAMGGSTLFVETSLRRPQDKDAKGDKDGSLEVTGQLGEVMKESARIAYTFARAFLMQHAPANDYLVTSHIHLHVPEGATPKDGPSAGCTIVTALLSLAMGRPVRQNLAMTGEVSLTGKILPVGGIKEKTIAAKRAGVTCIVLPAENKKDFYDLAAFITEGLEVHFVEHYREIFDIAFPDEQAEALAVER
The molecule B1 yielded a Kd of 0.829 nM, a koff of 0.000151 s⁻¹ and a kon of 182000 M⁻¹ s⁻¹.
